According to patent US20230312730A1 (ATYR PHARMA, published 2023):
Residue numbers refer to the chain shown, from its start. Names and notes keep the numbering of the source. Values joined by “and” are separate entries in the source; they are usually repeats but may differ in a detail not shown here. Equal values may be shown once.

Experiments:
[1] = molecular target: human NRP2 endogenously expressed on cell lines (human) (UniProt O60462); assay: flow cytometry on A549 WT cells
[2] = molecular target: T1, human NRP2 variant 2 (NM_003872) over-expressed on Expi293-hNRP2 clonal cells (human, UniProt O60462 23-931); assay: flow cytometry on Expi293-hNRP2 cells, 0.05-100 nM, anti-human Fc detection
T1 sequence: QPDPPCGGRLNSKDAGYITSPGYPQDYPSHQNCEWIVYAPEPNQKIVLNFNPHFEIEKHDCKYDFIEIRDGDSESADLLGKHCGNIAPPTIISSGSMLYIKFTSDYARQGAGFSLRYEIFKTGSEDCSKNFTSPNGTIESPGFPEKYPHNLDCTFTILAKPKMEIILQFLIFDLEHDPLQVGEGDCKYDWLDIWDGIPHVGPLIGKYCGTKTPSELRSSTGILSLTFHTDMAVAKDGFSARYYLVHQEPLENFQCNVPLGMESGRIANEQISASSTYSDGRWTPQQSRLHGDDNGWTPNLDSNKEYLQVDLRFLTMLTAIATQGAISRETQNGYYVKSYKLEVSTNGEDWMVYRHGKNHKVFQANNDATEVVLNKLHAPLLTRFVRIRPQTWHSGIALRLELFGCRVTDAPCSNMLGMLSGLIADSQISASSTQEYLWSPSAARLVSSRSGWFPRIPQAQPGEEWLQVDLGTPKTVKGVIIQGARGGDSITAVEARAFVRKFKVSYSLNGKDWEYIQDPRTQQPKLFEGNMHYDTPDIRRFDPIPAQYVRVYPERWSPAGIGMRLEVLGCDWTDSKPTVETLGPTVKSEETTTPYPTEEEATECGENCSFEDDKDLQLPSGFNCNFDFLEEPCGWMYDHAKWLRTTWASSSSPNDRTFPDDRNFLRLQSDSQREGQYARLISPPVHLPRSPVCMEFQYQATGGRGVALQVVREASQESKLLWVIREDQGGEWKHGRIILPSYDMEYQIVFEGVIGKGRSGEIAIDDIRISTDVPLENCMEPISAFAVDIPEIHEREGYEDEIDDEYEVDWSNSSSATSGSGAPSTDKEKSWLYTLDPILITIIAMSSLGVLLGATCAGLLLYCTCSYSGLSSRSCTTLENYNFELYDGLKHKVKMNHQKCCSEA
Procedure: (§1) To assess the ability of the anti-NRP2 antibodies to displace the binding of VEGF-C, Semaphorin 3F and HRS polypeptides, flow cytometry was used. Binding of recombinant human VEGF-C (R&D Cat#9199-VC-025, untagged), Sema3F-Fc (R&D Cat#9878-S3-025, Fc chimera protein) or Sema3F-p95m (prepared In-house), Myc-tagged Sema3F-p95 R583A R586A-1359) to Expi293-hNRP2 cells over expressing human NRP2 were determined by immunostaining assay as described in Example 4. Studies were conducted with cells incubated with each of these proteins at 0.05 - 100 nM at 3-fold dilutions on ice for 1 hour. Cells were then washed and stained with secondary and/or detection antibodies as described previously. […] Sema3F-Fc was detected by a Cy3-conjugated goat anti-human Fc IgG (Jackson ImmunoResearch Cat#109165098). Sema3F-p95m was detected by an AF555-conjugated anti-Myc antibody (ThermoFisher Cat#MA1980A555).
(§2) Binding curves were fit and EC₅₀ values determined as described above. VEGF-C was determined to bind to Expi293-hNRP2 cells with an EC₅₀ of 0.6 nM. Sema3F-Fc was determined to bind to Expi293-hNRP2 cells with an EC₅₀ of ^{~}8.2 nM, and Sema3F-p95m bound to Expi293-hNRP2 cells with an with EC₅₀ of 5.7 nM.

[3] = molecular target: T1, human NRP2 variant 2 (NM_003872) …; assay: flow cytometry on Expi293-hNRP2 cells, 0.05-100 nM, anti-Myc detection
Procedure: as §1, §2

[4] = molecular target: T1, human NRP2 variant 2 (NM_003872) …; assay: flow cytometry on Expi293-hNRP2 cells, 0.05-100 nM, rabbit anti-VEGF-C detection
Procedure: as §1, §2

Molecule: C9-AF647 Santa Cruz Biotech anti-NRP2 antibody
- Fold change of a-NRP2 to Ctl (FC) [1]: 2.6 fold and 1.8 fold

Molecule: C9-PE Santa Cruz Biotech anti-NRP2 antibody
- Fold change of a-NRP2 to Ctl (FC) [1]: 6 fold

B1: Human SEMA3F-Fc (R&D Systems #9878-S3) (Fc fusion, UniProt Q13275 19-779, looked up)
chain: SFPTQDHLPATPRVRLSFKELKATGTAHFFNFLLNTTDYRILLKDEDHDRMYVGSKDYVLSLDLHDINREPLIIHWAASPQRIEECVLSGKDVNGECGNFVRLIQPWNRTHLYVCGTGAYNPMCTYVNRGRRAQATPWTQTQAVRGRGSRATDGALRPMPTAPRQDYIFYLEPERLESGKGKCPYDPKLDTASALINEELYAGVYIDFMGTDAAIFRTLGKQTAMRTDQYNSRWLNDPSFIHAELIPDSAERNDDKLYFFFRERSAEAPQSPAVYARIGRICLNDDGGHCCLVNKWSTFLKARLVCSVPGEDGIETHFDELQDVFVQQTQDVRNPVIYAVFTSSGSVFRGSAVCVYSMADIRMVFNGPFAHKEGPNYQWMPFSGKMPYPRPGTCPGGTFTPSMKSTKDYPDEVINFMRSHPLMYQAVYPLQRRPLVVRTGAPYRLTTIAVDQVDAADGRYEVLFLGTDRGTVQKVIVLPKDDQELEELMLEEVEVFKDPAPVKTMTISSKRQQLYVASAVGVTHLSLHRCQAYGAACADCCLARDPYCAWDGQACSRYTASSKRRSRRQDVRHGNPIRQCRGFNSNANKNAVESVQYGVAGSAAFLECQPRSPQATVKWLFQRDPGDRRREIRAEDRFLRTEQGLLLRALQLSDRGLYSCTATENNFKHVVTRVQLHVLGRDAVHAALFPPLSMSAPPPPGAGPPTPPYQELAQLLAQPEVGLIHQYCQGYWRHVPPSPREAPGAPRSPEPQDQKKPRNRR
notes: Bought reagent; not shown: Fc of the bought chimera (detected with anti-human Fc)
- EC50 [2]: ~8.2 nM

B2: Sema3F-p95m (Myc-tagged Sema3F-p95 R583A R586A-1359) (ligand, UniProt Q13275 19-779, looked up)
chain: B1 chain with R565A, R568A
notes: not shown: Myc tag
- EC50 [3]: 5.7 nM

B3: recombinant human VEGF-C (R&D Systems #9199-VC) (ligand, UniProt P49767 103-227, looked up)
chain: TEETIKFAAAHYNTEILKSIDNEWRKTQCMPREVCIDVGKEFGVATNTFFKPPCVSVYRCGGCCNSEGLQCMNTSTSYLSKTLFEITVPLSQGPKPVTISFANHTSCRCMSKLDVYRQVHSIIRR
notes: Bought reagent
- EC50 [4]: 0.6 nM
